System: growth of yeast strains under 51 stress conditions
Assay: Growth assays in 51 stress conditions (Fig. 1E-F, S2D, S5B)
Format: cell-based, Saccharomyces cerevisiae
Design: key to Growth (Fig. S2D) / growth of ABP1 SH3-swapped strains in stress condition: log2 colony size, average of median per strain (growth score)
Conditions: ABP1 SH3-swapped strains
Method: All WT, SH3-deleted, KO (except for CDC25 which is the only essential SH3-containing gene in yeast), ABP1 SH3-swapped, and SLA1 SH3-shuffled strains were grown on omnitrays in 1536 formats and robotically manipulated with a pin tool (the DHFR F[1,2] bait strains were used except for the KO strains). Each strain was randomly positioned in 6 replicates per plate and two plates per condition were performed, for 12 replicates per strain in total. A border of two rows and two columns of WT strains (BY4741) around the plate was used to remove border effects. Strains were grown on YPD media for two days at 30 °C. They were then replicated on 51 different media that are described in the Supplementary Table 3 and were incubated at 37 °C in a spImager custom platform with images acquired every two hours for four days. The colony sizes from plate pictures were also measured with the R package “Gitter” and the output was manually inspected. Positions with an abnormality in colony circularity were removed. The colony sizes after 74 h of incubation at 37 °C were log2 transformed and used for the analyses. First, the differences between the two plate replicates were corrected to remove plate effects. The median colony size was calculated for each strain per plate. Strains with a difference in their median colony size of more than two between the two plate replicates were removed. Finally, the average of the median colony size was calculated for each strain per condition (growth score).

B1: FUS1 (protein, UniProt P11710 1-512, looked up)
Nuclear fusion protein FUS1: MVATIMQTTTTVLTTVAAMSTTLASNYISSQASSSTSVTTVTTIATSIRSTPSNLLFSNVAAQPKSSSASTIGLSIGLPIGIFCFGLLILLCYFYLKRNSVSISNPPMSATIPREEEYCRRTNWFSRLFWQSKCEDQNSYSNRDIEKYNDTQWTSGDNMSSKIQYKISKPIIPQHILTPKKTVKNPYAWSGKNISLDPKVNEMEEEKVVDAFLYTKPPNIVHIESSMPSYNDLPSQKTVSSKKTALKTSEKWSYESPLSRWFLRGSTYFKDYGLSKTSLKTPTGAPQLKQMKMLSRISKGYFNESDIMPDERSPILEYNNTPLDANDSVNNLGNTTPDSQITSYRNNNIDLITARPHSVIYGTTAQQTLETNFNDHHDCNKSTEKHELIIPTPSKPLKKRKKRRQSKMYQHLQHLSRSKPLPLTPNSKYNGEASVQLGKTYTVIQDYEPRLTDEIRISLGEKVKILATHTDGWCLVEKCNTQKGSIHVSVDDKRYLNEDRGIVPGDCLQEYD
Growth (Fig. S2D) (Bathophenanthroline.0.1uM): 10.7893
Growth (Fig. S2D) (Bathophenanthroline.10uM): 10.6947
Growth (Fig. S2D) (Bathophenanthroline.1uM): 10.778
Growth (Fig. S2D) (CaCl2.100mM): 10.8206
Growth (Fig. S2D) (CaCl2.250mM): 10.8008
Growth (Fig. S2D) (CaCl2.500mM): 10.319
Growth (Fig. S2D) (Caffein.10mM): 10.109
Growth (Fig. S2D) (Caffein.2mM): 11.0074
Growth (Fig. S2D) (CdCl2.100uM): 9.381
Growth (Fig. S2D) (CdCl2.10uM): 10.9194
Growth (Fig. S2D) (CdCl2.50uM): 9.89
Growth (Fig. S2D) (CuSO4.1mM): 10.4955
Growth (Fig. S2D) (CuSO4.5mM): 8.084
Growth (Fig. S2D) (Cycloheximide.0.05.uM): 11.1072
Growth (Fig. S2D) (Cycloheximide.0.2.uM): 10.666
Growth (Fig. S2D) (Cycloheximide.0.5.uM): 10.227
Growth (Fig. S2D) (DMSO.2.): 11.051
Growth (Fig. S2D) (DMSO.6.): 9.944
Growth (Fig. S2D) (DMSO.8.): 9.179
Growth (Fig. S2D) (Ethanol.2.): 10.7876
Growth (Fig. S2D) (Ethanol.6.): 10.3273
Growth (Fig. S2D) (Ethanol.8.): 10.1194
Growth (Fig. S2D) (Galactose.2.): 10.7919
Growth (Fig. S2D) (Glycerol.2.): 9.646
Growth (Fig. S2D) (Hydroxyurea.25mM): 10.8071
Growth (Fig. S2D) (Hygromycin.190uM): 11.0027
Growth (Fig. S2D) (Hygromycin.19uM): 11.0061
Growth (Fig. S2D) (Hygromycin.95uM): 11.0532
Growth (Fig. S2D) (MMS.0.004.): 10.9625
Growth (Fig. S2D) (MMS.0.02.): 10.7139
Growth (Fig. S2D) (MMS.0.04.): 10.0597
Growth (Fig. S2D) (Menadione.100uM): 10.6065
Growth (Fig. S2D) (Menadione.200uM): 10.4266
Growth (Fig. S2D) (Menadione.50uM): 10.8061
Growth (Fig. S2D) (NaCl.0.25M): 10.6954
Growth (Fig. S2D) (NaCl.1M): 9.8389
Growth (Fig. S2D) (Nitroquinoline.10uM): 10.6415
Growth (Fig. S2D) (Nitroquinoline.50uM): 10.6237
Growth (Fig. S2D) (Nystatin.0.01uM): 11.0226
Growth (Fig. S2D) (Nystatin.0.1uM): 11.0679
Growth (Fig. S2D) (Raffinose.2.): 11.0059
Growth (Fig. S2D) (Rapamycin.10nM): 9.886
Growth (Fig. S2D) (Rapamycin.50nM): 9.356
Growth (Fig. S2D) (SC.pH3): 10.3927
Growth (Fig. S2D) (SC.pH6): 11.04
Growth (Fig. S2D) (SDS.0.01.): 10.9614
Growth (Fig. S2D) (SDS.0.02.): 10.9777
Growth (Fig. S2D) (SDS.0.05.): 10.8408
Growth (Fig. S2D) (Sorbitol.10mM): 10.9835
Growth (Fig. S2D) (Sorbitol.1mM): 11.0132
Growth (Fig. S2D) (Sorbitol.5mM): 10.8904

B2: CYK3 (protein, UniProt Q07533 1-885, looked up)
Cytokinesis protein 3: MATNLTSLKPPFKVKARYGWSGQTKGDLGFLEGDIMEVTRIAGSWFYGKLLRNKKCSGYFPHNFVILLEERLNSSTENGRQPSKIVESFEKSNKVVIPPVPSRYSDERPRPKKKLSSSMPNSPKKPVDSLTKARKAKSKEMVNEKNIYNTQSSRHHNNSAPNLPLASHSKPQVRNFEESMNNPLPPLPPLPDLDNMRKTDKRAPKKSYSANDLHMARSSREYNYYKDNQKFYDGFIPEKRYSLEEDSISSGLFSNSQYLNDSACSSENSFALMSDFSATSAGSFARHKYAQSFSDSLQRSQNANGCSTKINDSQEFGDSNASSRNGKMGDILRKIIIPKRNTNIYSSSVSSPKSPKAYPKLPDIQNLNLSATPDEARDWIAVKCHLNRARTLTKYDKHPRYMRALEENRDLILHPQDSIYNGLNTNEVKGNTKPGLVDVELAELNIEYIDKMTWKRCIRDGTMTLDSWAQTTFSARYSTVLEKLRGIYIFCTEMFALTDDNGTSDFSAEPQNLEKILYRKHCTPYELTWLFKKLANSLGITCEIVIGFLKTPSAINWEFKYNHCWLRILVNKEWRFIDVILGNVTNPIHEFVNNRKIKKAENSYFLMAPLEMIYTHIPPREFEQHIVPSIDQLSALYLPLVFPSFFKNELKLYKFSTALSFLEDSEIYECSLEIPNDVEVFASVVIPTDNEEASSAYRNMELALTQIKKQKAESGRRIALIKAVLPPNVNKGSLYIHSGVRGTQTSIANIHPLSMMVPLTHKGSNMKYEFVIKIPSESIQKIELYIVEPQSRYLFVGNEYSFEVIQSPSDGIVYSSDEGPNQNRKQPMAIKSPSGRVHELVKSDPHFPYGTWKGSIKIKEPGVWSALVIADSGIGWSVFAEWLCV
Growth (Fig. S2D) (Bathophenanthroline.0.1uM): 10.8556
Growth (Fig. S2D) (Bathophenanthroline.10uM): 10.6576
Growth (Fig. S2D) (Bathophenanthroline.1uM): 10.8513
Growth (Fig. S2D) (CaCl2.100mM): 10.8897
Growth (Fig. S2D) (CaCl2.250mM): 10.7885
Growth (Fig. S2D) (CaCl2.500mM): 10.3059
Growth (Fig. S2D) (Caffein.10mM): 9.982
Growth (Fig. S2D) (Caffein.2mM): 10.9591
Growth (Fig. S2D) (CdCl2.100uM): 9.489
Growth (Fig. S2D) (CdCl2.10uM): 10.8859
Growth (Fig. S2D) (CdCl2.50uM): 9.907
Growth (Fig. S2D) (CuSO4.1mM): 10.4416
Growth (Fig. S2D) (CuSO4.5mM): 8.067
Growth (Fig. S2D) (Cycloheximide.0.05.uM): 11.0397
Growth (Fig. S2D) (Cycloheximide.0.2.uM): 10.6845
Growth (Fig. S2D) (Cycloheximide.0.5.uM): 10.0538
Growth (Fig. S2D) (DMSO.2.): 11.074
Growth (Fig. S2D) (DMSO.6.): 9.997
Growth (Fig. S2D) (DMSO.8.): 9.341
Growth (Fig. S2D) (Ethanol.2.): 10.829
Growth (Fig. S2D) (Ethanol.6.): 10.3434
Growth (Fig. S2D) (Ethanol.8.): 10.1675
Growth (Fig. S2D) (Galactose.2.): 10.8951
Growth (Fig. S2D) (Glycerol.2.): 9.685
Growth (Fig. S2D) (Hydroxyurea.25mM): 10.7817
Growth (Fig. S2D) (Hygromycin.190uM): 10.9791
Growth (Fig. S2D) (Hygromycin.19uM): 10.9621
Growth (Fig. S2D) (Hygromycin.95uM): 11.0521
Growth (Fig. S2D) (MMS.0.004.): 10.9601
Growth (Fig. S2D) (MMS.0.02.): 10.7185
Growth (Fig. S2D) (MMS.0.04.): 9.916
Growth (Fig. S2D) (Menadione.100uM): 10.6134
Growth (Fig. S2D) (Menadione.200uM): 10.436
Growth (Fig. S2D) (Menadione.50uM): 10.8202
Growth (Fig. S2D) (NaCl.0.25M): 10.7906
Growth (Fig. S2D) (NaCl.1M): 9.617
Growth (Fig. S2D) (Nitroquinoline.10uM): 10.7078
Growth (Fig. S2D) (Nitroquinoline.50uM): 10.6701
Growth (Fig. S2D) (Nystatin.0.01uM): 11.0601
Growth (Fig. S2D) (Nystatin.0.1uM): 11.0266
Growth (Fig. S2D) (Raffinose.2.): 11.0502
Growth (Fig. S2D) (Rapamycin.10nM): 9.888
Growth (Fig. S2D) (Rapamycin.50nM): 9.494
Growth (Fig. S2D) (SC.pH3): 10.4532
Growth (Fig. S2D) (SC.pH6): 11.0119
Growth (Fig. S2D) (SDS.0.01.): 11.0053
Growth (Fig. S2D) (SDS.0.02.): 10.9934
Growth (Fig. S2D) (SDS.0.05.): 10.9282
Growth (Fig. S2D) (Sorbitol.10mM): 11.048
Growth (Fig. S2D) (Sorbitol.1mM): 11.0333
Growth (Fig. S2D) (Sorbitol.5mM): 10.9546
